Results published in paper PMC4813464, “Recombinant Collagen Engineered to Bind to Discoidin Domain Receptor Functions as a Receptor Inhibitor*” (The Journal of Biological Chemistry, 2015).

T1: Collagen type III, pepsin-extracted from bovine skin (bovine, UniProt P04258 1-1049, 4-hydroxyproline in Yaa positions (positions not listed))
T1 construct: bovine collagen alpha1(III) chain, pepsin-extracted from skin; Homotrimer of alpha1(III) chains; native triple helix unless denatured (90 °C, 30 min); also called Bovine Collage III; collagen III; source: pepsin-extracted from bovine skin (provided by Dr. John Ramshaw)
T1 sequence (looked up): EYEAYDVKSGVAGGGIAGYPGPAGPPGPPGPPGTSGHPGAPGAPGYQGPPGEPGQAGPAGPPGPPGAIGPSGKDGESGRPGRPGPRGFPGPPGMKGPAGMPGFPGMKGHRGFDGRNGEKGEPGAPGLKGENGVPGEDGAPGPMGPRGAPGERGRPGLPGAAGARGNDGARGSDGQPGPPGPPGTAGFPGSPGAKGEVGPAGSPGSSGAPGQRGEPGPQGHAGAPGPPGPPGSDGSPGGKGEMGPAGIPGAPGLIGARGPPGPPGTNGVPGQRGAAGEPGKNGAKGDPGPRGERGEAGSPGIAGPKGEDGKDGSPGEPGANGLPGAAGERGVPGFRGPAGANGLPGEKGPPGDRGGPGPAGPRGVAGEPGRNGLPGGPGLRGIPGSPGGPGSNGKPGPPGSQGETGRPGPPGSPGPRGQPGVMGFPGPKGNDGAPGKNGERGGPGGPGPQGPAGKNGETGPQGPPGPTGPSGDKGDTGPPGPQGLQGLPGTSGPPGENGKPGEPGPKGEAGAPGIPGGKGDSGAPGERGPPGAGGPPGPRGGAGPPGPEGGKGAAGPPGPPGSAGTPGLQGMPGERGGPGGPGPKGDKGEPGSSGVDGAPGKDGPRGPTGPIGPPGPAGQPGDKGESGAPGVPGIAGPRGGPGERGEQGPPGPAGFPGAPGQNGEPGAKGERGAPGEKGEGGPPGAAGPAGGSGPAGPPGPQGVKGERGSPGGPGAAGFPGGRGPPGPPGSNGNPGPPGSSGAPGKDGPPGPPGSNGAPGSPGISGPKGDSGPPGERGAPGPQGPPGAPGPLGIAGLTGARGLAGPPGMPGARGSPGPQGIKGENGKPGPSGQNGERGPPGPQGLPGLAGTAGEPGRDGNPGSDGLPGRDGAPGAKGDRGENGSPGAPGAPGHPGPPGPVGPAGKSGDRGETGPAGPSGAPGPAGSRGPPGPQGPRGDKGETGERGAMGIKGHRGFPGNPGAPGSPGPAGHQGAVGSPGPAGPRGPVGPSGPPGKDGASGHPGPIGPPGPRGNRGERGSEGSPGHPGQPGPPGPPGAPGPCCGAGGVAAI

B1: DDR1-Fc (recombinant human discoidin domain receptor 1 ectodomain, Fc-tagged) (Fc fusion, UniProt Q08345 21-417, looked up)
chain: DMKGHFDPAKCRYALGMQDRTIPDSDISASSSWSDSTAARHSRLESSDGDGAWCPAGSVFPKEEEYLQVDLQRLHLVALVGTQGRHAGGLGKEFSRSYRLRYSRDGRRWMGWKDRWGQEVISGNEDPEGVVLKDLGPPMVARLVRFYPRADRVMSVCLRVELYGCLWRDGLLSYTAPVGQTMYLSEAVYLNDSTYDGHTVGGLQYGGLGQLADGVVGLDDFRKSQELRVWPGYDYVGWSNHSFSSGYVEMEFEFDRLRAFQAMQVHCNNMHTLGARLPGGVECRFRRGPAMAWEGEPMRHNLGGNLGDPRARAVSVPLGGRVARFLQCRFLFAGPWLLFSEISFISDVVNNSSPALGGTFPPAPWWPPGPPPTNFSSLELEPRGQQPVAKAEGSPTA
notes: human discoidin domain receptor 1, ectodomain; IgG1 Fc, R&D Systems) stood in which experiment; In the functional rows the receptor was full-length DDR1a in HEK293 cells or endogenous DDR1 on human megakaryocytes; also called DDR1 ectodomain; source: HEK293-EBNA, episomally transfected, purified (rProtein A) (IgG2 Fc); for some experiments bought: R&D Systems (IgG1 Fc)
B2: DDR2-Fc (recombinant human discoidin domain receptor 2 ectodomain, Fc-tagged) (Fc fusion, UniProt Q16832 22-399, looked up)
chain: KAQVNPAICRYPLGMSGGQIPDEDITASSQWSESTAAKYGRLDSEEGDGAWCPEIPVEPDDLKEFLQIDLHTLHFITLVGTQGRHAGGHGIEFAPMYKINYSRDGTRWISWRNRHGKQVLDGNSNPYDIFLKDLEPPIVARFVRFIPVTDHSMNVCMRVELYGCVWLDGLVSYNAPAGQQFVLPGGSIIYLNDSVYDGAVGYSMTEGLGQLTDGVSGLDDFTQTHEYHVWPGYDYVGWRNESATNGYIEIMFEFDRIRNFTTMKVHCNNMFAKGVKIFKEVQCYFRSEASEWEPNAISFPLVLDDVNPSARFVTVPLHHRMASAIKCQYHFADTWMMFSEITFQSDAAMYNNSEALPTSPMAPTTYDPMLKVDDSNTR
notes: human discoidin domain receptor 2, ectodomain; In the functional rows the receptor was full-length DDR2 in HEK293 cells; also called DDR2 ectodomain; source: HEK293-EBNA, episomally transfected, purified (rProtein A)

What was measured:
Assay in all cases: ELISA; solid-phase binding assay: native (triple-helical) collagens coated at 200 μg/ml in PBS on Immulon 2HB plates overnight at 4 °C; DDR-Fc at 20 μg/ml (∼220 nM) or in a series of 0-60 μg/ml (0-667 nM) in PBS, 3 h at room temperature; anti-Fc detection, A450; apparent Kd from a one-site fit
[1] = molecular target: SCl-DDR4 (bacterial collagen with four triplets of the human collagen III DDR-binding sequence) (Streptococcus pyogenes | human)
[2] = molecular target: SCl-DDR6 (bacterial collagen with six triplets of the human collagen III DDR-binding sequence) (Streptococcus pyogenes | human)
[3] = molecular target: T1, Collagen type III, pepsin-extracted …; settings: both partners purified

Molecule | Kd [1] | Kd [2] | Kd [3]
DDR1-Fc (recombinant human discoidin domain receptor 1 ectodomain, Fc-tagged) (from UniProt Q08345 21-417) (Fc fusion) | 53.3 nM | 66 nM | –
B1 | – | – | 15.2 ± 0.9 nM
B2 | 81.2 nM | 69.7 nM | 20 ± 1.9 nM
